The values below come from the Immune Epitope Database (IEDB).

As a reminder, the Kd is a measure of binding affinity in units of concentration. For orientation: IC50 means the point on the concentration scale where inhibition reaches its midpoint.

The target of assay [1] is HLA-A*29:02. As to the kind of experiment: IEDB peptide-MHC binding, purified MHC/direct/fluorescence; filed as Kd, often an IC50 or EC50 that approximates it; ≥ and ≤ were set here for values at or beyond the usual limits of such assays.
The target of a further assay is HLA-B*46:01. Described as above. The settings on record: source organism: West Nile virus.
The target of assay [2] is HLA-A*31:01. Described as above.
The target of another assay is HLA-A*01:01. Described as above.
The next assay deals with HLA-B*58:01. Described as above.
For a further assay, the target named is HLA-B*27:05. The description is as above. The conditions noted are these: source organism: West Nile virus.
Assay [3] concerns the target HLA-A*11:01. The assay is described as above.
Another assay deals with HLA-B*08:01. The description is as above. The settings on record: source organism: West Nile virus.
Assay [4] deals with HLA-B*18:01. The description is as above. The settings on record: source organism: West Nile virus.
The target in assay [5] is HLA-A*03:01. The assay is described as above.
The next assay concerns the target HLA-B*07:02. Described as above. The conditions noted are these: source organism: West Nile virus.
Assay [6] deals with HLA-B*57:01. Described as above. The settings on record: source organism: West Nile virus.
For the next assay, the target named is HLA-B*08:02. The description is as above. The conditions noted are these: source organism: West Nile virus strain PTRoxo.
In a further assay the target is HLA-A*69:01. Described as above.
The target of the next assay is HLA-A*24:03. As to the kind of experiment: IEDB peptide-MHC binding, purified MHC/competitive/fluorescence; filed as Kd, often an IC50 or EC50 that approximates it; ≥ and ≤ were set here for values at or beyond the usual limits of such assays.
The target of a further assay is HLA-A*30:01. The description is as above. The settings on record: source organism: Nostoc punctiforme PCC 73102.
Assay [7] concerns the target HLA-A*29:02. Described as above.
Assay [8] deals with HLA-A*02:01. As to the kind of experiment: IEDB peptide-MHC binding, purified MHC/competitive/fluorescence; ≥ and ≤ were set here for values at or beyond the usual limits of such assays.
The next assay addresses HLA-A*24:02. Described as above.
Assay [9] has as its target HLA-A*11:01. The assay is described as above.
Assay [10] deals with HLA-B*15:01. Described as above.
In assay [11] the target is HLA-A*02:01. Description: IEDB peptide-MHC binding, purified MHC/direct/fluorescence; filed as Kd, often an IC50 or EC50 that approximates it; ≥ and ≤ were set here for values at or beyond the usual limits of such assays.
Another assay addresses HLA-A*02:19. The description is as above. The settings on record: source organism: Salmonella enterica subsp. enterica serovar Typhimurium.
Assay [12] concerns the target HLA-A*02:01. Description: IEDB peptide-MHC binding, purified MHC/competitive/fluorescence; filed as Kd, often an IC50 or EC50 that approximates it; ≥ and ≤ were set here for values at or beyond the usual limits of such assays.
The target in another assay is HLA-B*15:17. The description is as above.
The next assay concerns the target HLA-B*51:01. The assay is described as above.
A further assay addresses HLA-B*27:03. The assay is described as above.
The next assay deals with HLA-B*39:01. Described as above.
A further assay deals with HLA-A*26:01. The assay is described as above.
The target in assay [13] is HLA-B*18:01. The description is as above.
For assay [14], the target named is HLA-A*03:01. The description is as above.
Assay [15] concerns the target HLA-B*57:01. The assay is described as above.
The target in assay [16] is HLA-A*31:01. The description is as above.
For assay [17], the target named is HLA-B*15:01. Description: IEDB peptide-MHC binding, purified MHC/direct/fluorescence; filed as Kd, often an IC50 or EC50 that approximates it; ≥ and ≤ were set here for values at or beyond the usual limits of such assays. The conditions noted are these: source organism: Homo sapiens.
In the next assay the target is HLA-B*15:03. Description: IEDB peptide-MHC binding, purified MHC/competitive/radioactivity; filed as Kd, often an IC50 or EC50 that approximates it; ≥ and ≤ were set here for values at or beyond the usual limits of such assays. The conditions noted are these: source organism: Vaccinia virus WR.
The mark [18] stands for this setting: source organism: West Nile virus.
The mark [19] stands for this setting: source organism: Vaccinia virus Copenhagen.
[20] abbreviates: source organism: Salmonella enterica subsp. enterica serovar Typhimurium.
Where [21] appears, read: source organism: dengue virus type 1.
Setting [22] is: source organism: Sudan ebolavirus.
Setting [23] is: source organism: Influenza A virus (A/chicken/Viet Nam/DT-015/2004(H5N1)).
The mark [24] stands for this setting: source organism: Yellow fever virus.
The mark [25] stands for this setting: source organism: Vaccinia virus.
The mark [26] stands for this setting: source organism: Ephydatia fluviatilis.

Consider GMSWITQGL, for which the Kd with HLA-A*29:02 [1] (setting [18]) was not below 20000 nM; with HLA-B*46:01, not below 20 µM; with HLA-A*31:01 [2] (setting [18]), not below 20 µM; with HLA-A*01:01 (setting [18]), not below 20000 nM; in the assay with HLA-B*58:01 (setting [18]), not below 20000 nM; with HLA-B*27:05, not below 20 µM. Besides, the equilibrium dissociation constant (Kd) in the assay with HLA-A*11:01 [3] (setting [18]) is not below 20000 nM; with HLA-B*08:01 it was not below 20 µM; in the assay with HLA-B*18:01 [4] it was not below 20 µM; in the assay with HLA-A*03:01 [5] (setting [18]), not below 20 µM; with HLA-B*07:02, not below 20 µM; in the assay with HLA-B*57:01 [6], not below 20 µM. The Kd with HLA-B*08:02 was not below 20 µM; in the assay with HLA-A*69:01 (setting [18]), 1330 nM.
Take WFSSGLWPF: the Kd in the assay with HLA-A*24:03 (source organism: Nostoc punctiforme PCC 73102) was 0.0039 µM; with HLA-A*30:01 it was not below 20 µM.
IWWEQYMQY yielded a Kd in the assay with HLA-A*29:02 [7] (source organism: Shigella boydii) not above 0.0001 µM.
Turning to KTFKDESIF, the half-maximal inhibitory concentration (IC50) came out at 66.8 µM with HLA-A*02:01 [8] (setting [19]), 24.2 µM with HLA-A*24:02 (setting [19]), 61 µM with HLA-A*11:01 [9] (setting [19]) and 9.29 µM in the assay with HLA-B*15:01 [10] (setting [19]).
On to GVNACQVGV, for which the dissociation constant Kd in the assay with HLA-A*02:01 [11] (setting [20]) is 239 nM; with HLA-A*02:19, 23 nM; in the assay with HLA-A*31:01 [2] (setting [20]), 10.2 µM; with HLA-B*58:01 (setting [20]), 392 nM; with HLA-A*69:01 (setting [20]) it was 392 nM.
For the sequence CLVSGLSSL, the Kd in the assay with HLA-A*02:01 [12] (source organism: Mus musculus) is 3.7 nM; in the assay with HLA-B*15:17 (source organism: Mus musculus), not below 20 µM; with HLA-A*24:03 (source organism: Mus musculus) it was not below 20 µM; with HLA-B*51:01 (source organism: Mus musculus), not below 20 µM; with HLA-B*27:03 (source organism: Mus musculus) it was not below 20 µM; in the assay with HLA-B*39:01 (source organism: Mus musculus), not below 20 µM. Further, the dissociation constant (Kd) with HLA-A*26:01 (source organism: Mus musculus), in the assay with HLA-B*18:01 [13] (source organism: Mus musculus), in the assay with HLA-A*03:01 [14] (source organism: Mus musculus) and with HLA-B*57:01 [15] (source organism: Mus musculus) was not below 20 µM throughout.
As to SSMVNGVVR, the Kd stood at 26.1 nM in the assay with HLA-A*11:01 [3] (setting [21]) and 18.4 nM in the assay with HLA-A*31:01 [16] (setting [21]).
For VIILFQKAF, the results for the IC50 with HLA-A*02:01 [8] (setting [22]), in the assay with HLA-A*24:02 (setting [22]) and with HLA-B*15:01 [10] (setting [22]) were not below 544 µM, 1.61 µM and not below 143 µM, respectively.
As for ETFNTPAMY, the Kd in the assay with HLA-A*29:02 [1] (source organism: Entamoeba histolytica HM-1:IMSS) was 10 nM; in the assay with HLA-A*02:01 [11] (source organism: Homo sapiens), not below 36200 nM; with HLA-A*01:01 (source organism: Homo sapiens), 1270 nM; with HLA-A*11:01 [3] (source organism: Homo sapiens), not below 38800 nM; in the assay with HLA-A*03:01 [5] (source organism: Homo sapiens) it was 10.5 µM; in the assay with HLA-B*15:01 [17], 554 nM. In the assay with HLA-A*69:01 (source organism: Homo sapiens), this sequence gave a Kd of 59.6 nM.
Take GIPLYDAIK: the values for the equilibrium dissociation constant (Kd) in the assay with HLA-A*11:01 [3] (setting [23]), in the assay with HLA-A*03:01 [5] (setting [23]) and with HLA-A*31:01 [16] (source organism: Influenza A virus (A/X-31(H3N2))) were 7780 nM, not below 20 µM and not below 20000 nM, respectively.
For ALNTITNLK, the Kd amounted to 8.6 nM with HLA-A*11:01 [3] (setting [24]) and 41.4 nM with HLA-A*31:01 [16] (setting [24]).
Consider VLWDTPSPK, for which the equilibrium dissociation constant (Kd) with HLA-A*11:01 [3] (setting [18]) is 4.5 nM; with HLA-A*31:01 [16] (setting [18]), 33.9 nM.
On to KVIDIDLER, for which the equilibrium dissociation constant (Kd) amounted to 13.9 nM with HLA-A*11:01 [3] (source organism: Mycobacterium tuberculosis) and 19.1 nM in the assay with HLA-A*31:01 [16] (source organism: Mycobacterium tuberculosis C).
For ESSINISGY, the Kd with HLA-A*29:02 [1] (source organism: Mammarenavirus machupoense) was 230 nM; with HLA-A*01:01 (source organism: Mammarenavirus juninense), 346 nM.
KMFTFWYMR: the results for the Kd with HLA-A*11:01 [3] (source organism: Fowlpox virus), with HLA-A*03:01 [5] (source organism: Fowlpox virus) and with HLA-A*31:01 [16] (source organism: Fowlpox virus) were 6.3 nM, 0.387 µM and 1.38 nM, respectively.
Turning to KQKMFSNNV, the Kd in the assay with HLA-B*15:03 was 19.3 nM. For the same sequence, the values for the half-inhibitory concentration (IC50) in the assay with HLA-A*02:01 [8] (setting [25]), with HLA-A*11:01 [9] (setting [25]) and with HLA-B*15:01 [10] (setting [25]) were 7.07 µM, not below 116 µM and 44.4 µM, respectively.
Regarding TLKPGTMSV, the dissociation constant Kd is not below 20 µM in the assay with HLA-A*29:02 [7] (setting [26]); 41 nM in the assay with HLA-A*02:01 [12] (setting [26]); not below 20 µM in the assay with HLA-B*15:17 (setting [26]); not below 20 µM with HLA-A*24:03 (setting [26]); not below 20 µM with HLA-B*51:01 (setting [26]); not below 20 µM with HLA-B*27:03 (setting [26]). The Kd in the assay with HLA-B*39:01 (setting [26]), with HLA-A*26:01 (setting [26]), in the assay with HLA-B*18:01 [13] (setting [26]), with HLA-A*03:01 [14] (setting [26]) and in the assay with HLA-B*57:01 [15] (setting [26]) was not below 20 µM in each case.
The sequence GSLFTEQAF yielded an IC50 with HLA-B*15:01 [10] (source organism: Vaccinia virus WR) of 5.94 µM.
